Measurements: US20070105771A1 (Y S THERAPEUTICS, published 2007)

Key:
[1] = biological target: T1, human CD26-derived 13 mer peptide 74 (human); assay: peptide microarray
T1 peptide: IYNGITDWVYEEE
Procedure: (§1) The overnight incubation was followed by three washings with each of PBS buffer pH 7.5 and water. The microarrays were then scanned using ArrayWorx-Microarray Scanner.
(§2) The SPOT recognition software package ArrayPro was used for data analysis. The mean of signal intensities from 3 identical subarrays on each microarray image was used for data evaluation.

[2] = biological target: T2, human CD26-derived 13 mer peptide 88 (human); assay: peptide microarray
T2 peptide: FLAYAQFNDTEVP
Procedure: as §1, §2

[3] = biological target: T3, human CD26-derived 13 mer peptide 89 (human); assay: peptide microarray
T3 peptide: AYAQFNDTEVPLI
Procedure: as §1, §2

[4] = biological target: T4, human CD26-derived 13 mer peptide 90 (human); assay: peptide microarray
T4 peptide: AQFNDTEVPLIEY
Procedure: as §1, §2

[5] = biological target: T5, human CD26-derived 13 mer peptide 96 (human); assay: peptide microarray
T5 peptide: YSFYSDESLQYPK
Procedure: as §1, §2

[6] = biological target: T6, human CD26-derived 13 mer peptide 99 (human); assay: peptide microarray
T6 peptide: ESLQYPKTVRVPY
Procedure: as §1, §2

[7] = biological target: T7, human CD26-derived 13 mer peptide 100 (human); assay: peptide microarray
T7 peptide: LQYPKTVRVPYPK
Procedure: as §1, §2

[8] = biological target: T8, human CD26-derived 13 mer peptide 102 (human); assay: peptide microarray
T8 peptide: KTVRVPYPKAGAV
Procedure: as §1, §2

[9] = biological target: T9, human CD26-derived 13 mer peptide 103 (human); assay: peptide microarray
T9 peptide: VRVPYPKAGAVNP
Procedure: as §1, §2

[10] = biological target: T10, human CD26-derived 13 mer peptide 104 (human); assay: peptide microarray
T10 peptide: VPYPKAGAVNPTV
Procedure: as §1, §2

[11] = biological target: T11, human CD26-derived 13 mer peptide 105 (human); assay: peptide microarray
T11 peptide: YPKAGAVNPTVKF
Procedure: as §1, §2

[12] = biological target: T12, human CD26-derived 13 mer peptide 106 (human); assay: peptide microarray
T12 peptide: KAGAVNPTVKFFV
Procedure: as §1, §2

[13] = biological target: T13, human CD26-derived 13 mer peptide 108 (human); assay: peptide microarray
T13 peptide: VNPTVKFFVVNTD
Procedure: as §1, §2

[14] = biological target: T14, human CD26-derived 13 mer peptide 109 (human); assay: peptide microarray
T14 peptide: PTVKFFVVNTDSL
Procedure: as §1, §2

[15] = biological target: T15, human CD26-derived 13 mer peptide 110 (human); assay: peptide microarray
T15 peptide: VKFFVVNTDSLSS
Procedure: as §1, §2

[16] = biological target: T16, human CD26-derived 13 mer peptide 111 (human); assay: peptide microarray
T16 peptide: FFVVNTDSLSSVT
Procedure: as §1, §2

[17] = biological target: T17, human CD26-derived 13 mer peptide 112 (human); assay: peptide microarray
T17 peptide: VVNTDSLSSVTNA
Procedure: as §1, §2

[18] = biological target: T18, human CD26-derived 13 mer peptide 113 (human); assay: peptide microarray
T18 peptide: NTDSLSSVTNATS
Procedure: as §1, §2

[19] = biological target: T19, human CD26-derived 13 mer peptide 114 (human); assay: peptide microarray
T19 peptide: DSLSSVTNATSIQ
Procedure: as §1, §2

[20] = biological target: T20, human CD26-derived 13 mer peptide 115 (human); assay: peptide microarray
T20 peptide: LSSVTNATSIQIT
Procedure: as §1, §2

[21] = biological target: T21, human CD26-derived 13 mer peptide 116 (human); assay: peptide microarray
T21 peptide: SVTNATSIQITAP
Procedure: as §1, §2

[22] = biological target: T22, human CD26-derived 13 mer peptide 117 (human); assay: peptide microarray
T22 peptide: TNATSIQITAPAS
Procedure: as §1, §2

[23] = biological target: T23, human CD26-derived 13 mer peptide 118 (human); assay: peptide microarray
T23 peptide: ATSIQITAPASML
Procedure: as §1, §2

[24] = biological target: T24, human CD26-derived 13 mer peptide 119 (human); assay: peptide microarray
T24 peptide: SIQITAPASMLIG
Procedure: as §1, §2

[25] = biological target: T25, human CD26-derived 13 mer peptide 120 (human); assay: peptide microarray
T25 peptide: QITAPASMLIGDH
Procedure: as §1, §2

[26] = biological target: T26, human CD26-derived 13 mer peptide 122 (human); assay: peptide microarray
T26 peptide: PASMLIGDHYLCD
Procedure: as §1, §2

[27] = biological target: T27, human CD26-derived 13 mer peptide 130 (human); assay: peptide microarray
T27 peptide: ATQERISLQWLRR
Procedure: as §1, §2

[28] = biological target: T28, human CD26-derived 13 mer peptide 9 (human); assay: peptide microarray
T28 peptide: SDHEYLYKQENNI
Procedure: as §1, §2

[29] = biological target: T29, human CD26-derived 13 mer peptide 12 (human); assay: peptide microarray
T29 peptide: YKQENNILVFNAE
Procedure: as §1, §2

[30] = biological target: T30, human CD26-derived 13 mer peptide 14 (human); assay: peptide microarray
T30 peptide: NNILVFNAEYGNS
Procedure: as §1, §2

[31] = biological target: T31, human CD26-derived 13 mer peptide 18 (human); assay: peptide microarray
T31 peptide: EYGNSSVFLENST
Procedure: as §1, §2

[32] = biological target: T32, human CD26-derived 13 mer peptide 19 (human); assay: peptide microarray
T32 peptide: GNSSVFLENSTFD
Procedure: as §1, §2

[33] = biological target: T33, human CD26-derived 13 mer peptide 20 (human); assay: peptide microarray
T33 peptide: SSVFLENSTFDEF
Procedure: as §1, §2

[34] = biological target: T34, human CD26-derived 13 mer peptide 21 (human); assay: peptide microarray
T34 peptide: VFLENSTFDEFGH
Procedure: as §1, §2

[35] = biological target: T35, human CD26-derived 13 mer peptide 22 (human); assay: peptide microarray
T35 peptide: LENSTFDEFGHSI
Procedure: as §1, §2

[36] = biological target: T36, human CD26-derived 13 mer peptide 23 (human); assay: peptide microarray
T36 peptide: NSTFDEFGHSIND
Procedure: as §1, §2

[37] = biological target: T37, human CD26-derived 13 mer peptide 24 (human); assay: peptide microarray
T37 peptide: TFDEFGHSINDYS
Procedure: as §1, §2

[38] = biological target: T38, human CD26-derived 13 mer peptide 25 (human); assay: peptide microarray
T38 peptide: DEFGHSINDYSIS
Procedure: as §1, §2

[39] = biological target: T39, human CD26-derived 13 mer peptide 26 (human); assay: peptide microarray
T39 peptide: FGHSINDYSISPD
Procedure: as §1, §2

[40] = biological target: T40, human CD26-derived 13 mer peptide 27 (human); assay: peptide microarray
T40 peptide: HSINDYSISPDGQ
Procedure: as §1, §2

[41] = biological target: T41, human CD26-derived 13 mer peptide 42 (human); assay: peptide microarray
T41 peptide: ASYDIYDLNKRQL
Procedure: as §1, §2

[42] = biological target: T42, human CD26-derived 13 mer peptide 44 (human); assay: peptide microarray
T42 peptide: IYDLNKRQLITEE
Procedure: as §1, §2

[43] = biological target: T43, human CD26-derived 13 mer peptide 45 (human); assay: peptide microarray
T43 peptide: DLNKRQLITEERI
Procedure: as §1, §2

[44] = biological target: T44, human CD26-derived 13 mer peptide 46 (human); assay: peptide microarray
T44 construct: also called NKRQL1TEERIPN
T44 peptide: NKRQLITEERIPN
Procedure: as §1, §2

[45] = biological target: T45, human CD26-derived 13 mer peptide 47 (human); assay: peptide microarray
T45 peptide: RQLITEERIPNNT
Procedure: as §1, §2

[46] = biological target: T46, human CD26-derived 13 mer peptide 49 (human); assay: peptide microarray
T46 construct: also called TEERJPNNTQWVT
T46 peptide: TEERIPNNTQWVT
Procedure: as §1, §2

[47] = biological target: T47, human CD26-derived 13 mer peptide 51 (human); assay: peptide microarray
T47 peptide: IPNNTQWVTWSPV
Procedure: as §1, §2

[48] = biological target: T48, human CD26-derived 13 mer peptide 61 (human); assay: peptide microarray
T48 peptide: WNNDIYVKIEPNL
Procedure: as §1, §2

[49] = biological target: human CD26 on the cell surface (human, UniProt P27487 1-766); assay: cell-based or functional assay
human CD26 on the cell surface, sequence (P27487 whole entry): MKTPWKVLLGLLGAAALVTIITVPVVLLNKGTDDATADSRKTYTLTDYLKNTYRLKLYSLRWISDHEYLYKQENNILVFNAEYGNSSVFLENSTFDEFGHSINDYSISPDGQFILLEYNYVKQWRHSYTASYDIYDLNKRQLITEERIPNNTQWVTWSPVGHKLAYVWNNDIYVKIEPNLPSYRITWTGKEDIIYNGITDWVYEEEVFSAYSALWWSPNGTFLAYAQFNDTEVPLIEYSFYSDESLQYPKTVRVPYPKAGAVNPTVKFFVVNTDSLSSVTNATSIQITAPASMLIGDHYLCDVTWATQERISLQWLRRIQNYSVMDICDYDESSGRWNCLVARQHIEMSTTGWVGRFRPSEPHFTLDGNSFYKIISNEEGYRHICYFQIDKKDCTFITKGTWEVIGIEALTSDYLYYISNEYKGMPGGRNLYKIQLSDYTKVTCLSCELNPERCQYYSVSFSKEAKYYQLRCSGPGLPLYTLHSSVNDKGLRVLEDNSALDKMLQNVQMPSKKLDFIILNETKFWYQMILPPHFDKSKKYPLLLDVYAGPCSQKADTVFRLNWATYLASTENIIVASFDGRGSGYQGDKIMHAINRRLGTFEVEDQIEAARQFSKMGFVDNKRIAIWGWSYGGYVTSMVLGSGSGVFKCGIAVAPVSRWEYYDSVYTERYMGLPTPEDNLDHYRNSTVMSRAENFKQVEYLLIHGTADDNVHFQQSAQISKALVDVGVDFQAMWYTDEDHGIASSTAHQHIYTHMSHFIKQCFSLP

[50] = biological target: T49, human CD26-derived 13 mer peptide 71 (human); assay: peptide microarray
T49 peptide: TGKEDIIYNGITD
Procedure: as §1, §2

[51] = biological target: T50, human CD26-derived 13 mer peptide 87 (human); assay: peptide microarray
T50 peptide: GTFLAYAQFNDTE
Procedure: as §1, §2

[52] = biological target: T51, human CD26-derived 13 mer peptide 16 (human); assay: peptide microarray
T51 peptide: VFNAEYGNSSVFL
Procedure: as §1, §2

[53] = biological target: T52, human CD26-derived 13 mer peptide 32 (human); assay: peptide microarray
T52 peptide: DGQFILLEYNYVK
Procedure: as §1, §2

B1: rhuMAb 409 (antibody, human IgG1, V domains shown)
VH: QVKLQESGPGLVQPSQTLSITCTVSGFSLTTYGVHWVRQSPGKGLEWLGVIWGGGRTDYDAAFISRLSISKDNSKSQVFFKMNSLQANDTAIYYCVRNRHDWFDYWGQGTTVTVSS
VL: DIQMTQSPSSLSASLGDRVTITCSASQGIRNSLNWYQQKPDGAVKLLIYYSSNLHSGVPSRFSGSGSGTDFSLTISNLEPEDIATYYCQQSIKLPFTFGSGTKLEIKR
notes: CM03 VH and VL with human IgG1 heavy chain constant region and human kappa constant region; also called X409
Mean Signal Value [1]: 0
Mean Signal Value [2]: 0
Mean Signal Value [3]: 0
Mean Signal Value [4]: 0
Mean Signal Value [5]: 0
Mean Signal Value [6]: 0
Mean Signal Value [7]: 0
Mean Signal Value [8]: 0
Mean Signal Value [9]: 0
Mean Signal Value [10]: 0
Mean Signal Value [11]: 0
Mean Signal Value [12]: 0
Mean Signal Value [13]: 0
Mean Signal Value [14]: 0
Mean Signal Value [15]: 0
Mean Signal Value [16]: 0
Mean Signal Value [17]: 0
Mean Signal Value [18]: 0
Mean Signal Value [19]: 0
Mean Signal Value [20]: 0
Mean Signal Value [21]: 0
Mean Signal Value [22]: 0
Mean Signal Value [23]: 0
Mean Signal Value [24]: 0
Mean Signal Value [25]: 0
Mean Signal Value [26]: 0
Mean Signal Value [27]: 10
Mean Signal Value [28]: 0
Mean Signal Value [29]: 0
Mean Signal Value [30]: 0
Mean Signal Value [31]: 0
Mean Signal Value [32]: 0
Mean Signal Value [33]: 0
Mean Signal Value [34]: 0
Mean Signal Value [35]: 0
Mean Signal Value [36]: 0
Mean Signal Value [37]: 0
Mean Signal Value [38]: 0
Mean Signal Value [39]: 0
Mean Signal Value [40]: 0
Mean Signal Value [41]: 0
Mean Signal Value [42]: 0
Mean Signal Value [43]: 0
Mean Signal Value [44]: 0
Mean Signal Value [45]: 0
Mean Signal Value [46]: 0
Mean Signal Value [47]: 0
Mean Signal Value [48]: 0
percent inhibition, MTT assay, Jurkat CD26+ cells, 0.05 ug/ml [49]: 4.8%
percent inhibition, MTT assay, Jurkat CD26+ cells, 0.25 ug/ml [49]: 12.9%
percent inhibition, MTT assay, Jurkat CD26+ cells, 0.5 ug/ml [49]: 14.7%
percent inhibition, MTT assay, Jurkat CD26+ cells, 2.5 ug/ml [49]: 19.7%
percent inhibition, MTT assay, Jurkat CD26+ cells, 5 ug/ml [49]: 21.7%

B2: rhuMAb 420 (antibody, human IgG1, V domains shown)
VH: EVQLVESGGGVKQPGETLRLTCTASGFSLSTYGVHWVRQAPGKGLEWVGVIWGDGRTDYDAAFMSRVTISKDTSKSTVYLQMNSLRAEDTAVYYCMRNRHDWFDYWGQGTTVTVSS
VL: EIEMTQSPSSLSVSAGERATISCSASQDIRNSLNWYQQKPGQAPRLLIYYSSNLHTGVPARFSGSGSGTDFTLTISRLEPEDVAIYYCQQSNKLPLTFGSGTKVEIKR
notes: X420 VH and X380 VL with human IgG1 and human kappa constant regions; also called X420 (IgG1)
Mean Signal Value [50]: 0
Mean Signal Value [51]: 0
Mean Signal Value [9]: 0
Mean Signal Value [11]: 0
Mean Signal Value [15]: 0
Mean Signal Value [16]: 0
Mean Signal Value [19]: 0
Mean Signal Value [21]: 0
Mean Signal Value [23]: 0
Mean Signal Value [24]: 0
Mean Signal Value [25]: 0
Mean Signal Value [28]: 0
Mean Signal Value [30]: 0
Mean Signal Value [52]: 0
Mean Signal Value [31]: 0
Mean Signal Value [32]: 0
Mean Signal Value [34]: 0
Mean Signal Value [35]: 0
Mean Signal Value [36]: 0
Mean Signal Value [37]: 0
Mean Signal Value [38]: 0
Mean Signal Value [39]: 0
Mean Signal Value [40]: 0
Mean Signal Value [53]: 0
Mean Signal Value [42]: 0
Mean Signal Value [43]: 0
Mean Signal Value [44]: 0
Mean Signal Value [45]: 0
percent inhibition, MTT assay, Jurkat CD26+ cells, 0.05 ug/ml [49]: 3.7%
percent inhibition, MTT assay, Jurkat CD26+ cells, 0.25 ug/ml [49]: 9.6%
percent inhibition, MTT assay, Jurkat CD26+ cells, 0.5 ug/ml [49]: 9.2%
percent inhibition, MTT assay, Jurkat CD26+ cells, 2.5 ug/ml [49]: 16.6%
percent inhibition, MTT assay, Jurkat CD26+ cells, 5 ug/ml [49]: 15.9%
